Among the data in US20220073920 are Kd values, retold here.

Data set [1] relates to Human adenovirus type 2 whole virion (HAdV-2) (Human adenovirus 2). The settings on record: ELASA; DPBS + 3 mM MgCl2 + 20 mM NaCl (printed NaCl2), pH 7.4, room temperature; n=7.
Data set [2] shares this test system. The settings on record: ELASA; DPBS + 3 mM MgCl2 + 20 mM NaCl (printed NaCl2), pH 7.4, room temperature; n=6.

Like-named read-outs stand apart in the source and are kept apart here.

Turning to “GTGCCAGCTATGCCATTGGGCGGGTCGTCCAATTCGAGAGGTCCCCTAGCGTCTATCTCTGCTGC [aptamer 20]”, in data set [1], the dissociation constant Kd turned out to be 75.9 nM.

For the sequence “GTGCCAGCTATGCCATTGGGGGACAATATCGCAGTGCATCTTCCTCTAGCGTCTATCTCTGCTGC [aptamer 10]”, the Kd in data set [2] was 3.6 nM.

A word on the Kd: it is the free concentration of one partner at which half of the binding sites on the other are occupied at equilibrium, for simple one-to-one binding.
